These results are taken from the supplement of paper PMC9112550, “Optimization of the antimicrobial peptide Bac7 by deep mutational scanning” (BMC Biology, 2022).
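Further: peptides expressed intracellularly from a pBAD plasmid library in pooled LB shake-flask culture, induced with 0.3% L-arabinose, DNA abundance read by NGS, three biological replicates, DESeq2 with apeglm shrinkage.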

The data set relates to Escherichia coli TOP10. Kind of data set: shrunken log2 fold change of peptide-encoding DNA abundance (4.5 h post-induction vs induction); higher = less antimicrobial activity (less host growth inhibition). Conditions: time post-induction: 4.5 h; library: site-saturation at positions 5, 18, 19, 20.
Regarding RRIRLRPPRLPRPRPRPHGCPRP, the “shrunken log2 fold change” value was -0.0225. Next, RRIRARPPRLPRPRPRPVFHPRP: -0.253; RRIRDRPPRLPRPRPRPIYKPRP: -0.175; RRIRGRPPRLPRPRPRPFSMPRP: 0.169. In the case of RRIRARPPRLPRPRPRPHLWPRP, the “shrunken log2 fold change” value was determined as 0.645. The same measure for RRIRGRPPRLPRPRPRPFGAPRP: 0.793; for RRIRGRPPRLPRPRPRPLIPPRP: -0.0737.

Take RRIRKRPPRLPRPRPRPWHTPRP: the “shrunken log2 fold change” value was 0.0104. Next, RRIRDRPPRLPRPRPRPCNNPRP: -0.931. Next, RRIRVRPPRLPRPRPRPRNGPRP: 0.0197. The same measure for RRIRPRPPRLPRPRPRPDWVPRP: 0.0636; for RRIRWRPPRLPRPRPRPGIMPRP: 0.238. Take RRIRRRPPRLPRPRPRPNCQPRP: the “shrunken log2 fold change” value came out at 0.0764. The same measure for RRIRFRPPRLPRPRPRPWTQPRP: -0.959; for RRIRSRPPRLPRPRPRPTKPPRP: 0.196; for RRIRYRPPRLPRPRPRPMYAPRP: -0.0214. On to RRIRERPPRLPRPRPRPPWLPRP, for which the “shrunken log2 fold change” value was determined as 0.488. The same measure for RRIRNRPPRLPRPRPRPGNHPRP: -0.265. Turning to RRIRWRPPRLPRPRPRPWFTPRP, the “shrunken log2 fold change” value is -0.0224. On to RRIRHRPPRLPRPRPRPIMVPRP, for which the “shrunken log2 fold change” value was -0.000687. The same measure for RRIRARPPRLPRPRPRPETCPRP: 0.331. The same measure for RRIRKRPPRLPRPRPRPVNSPRP: 0.0157.

With RRIRSRPPRLPRPRPRPVDYPRP, the “shrunken log2 fold change” value was -0.268. Next, RRIRTRPPRLPRPRPRPMIKPRP: -0.103. The same measure for RRIRFRPPRLPRPRPRPCCNPRP: -0.0548; for RRIRQRPPRLPRPRPRPEWRPRP: -0.00139; for RRIRYRPPRLPRPRPRPWLKPRP: -0.0198. The same measure for RRIRARPPRLPRPRPRPNNCPRP: -0.466; for RRIRARPPRLPRPRPRPAKVPRP: 0.167; for RRIRGRPPRLPRPRPRPGVWPRP: 1.22.

Turning to RRIRARPPRLPRPRPRPNLCPRP, the “shrunken log2 fold change” value amounted to 0.0317. The same measure for RRIRHRPPRLPRPRPRPALLPRP: 0.284; for RRIRRRPPRLPRPRPRPEPDPRP: 0.879; for RRIRLRPPRLPRPRPRPPGDPRP: 0.834. Next, RRIRIRPPRLPRPRPRPPNSPRP: 0.0359. Next, RRIRERPPRLPRPRPRPNQMPRP: -0.0733.

Turning to RRIRLRPPRLPRPRPRPPSVPRP, the “shrunken log2 fold change” value was -0.0845.

Consider RRIRARPPRLPRPRPRPFQEPRP, for which the “shrunken log2 fold change” value worked out at 0.127.

Take RRIRPRPPRLPRPRPRPKHKPRP: the “shrunken log2 fold change” value was -0.0938.

Take RRIRPRPPRLPRPRPRPNPMPRP: the “shrunken log2 fold change” value was -0.211. For the sequence RRIRHRPPRLPRPRPRPTHYPRP, the “shrunken log2 fold change” value was -0.26. RRIRQRPPRLPRPRPRPDHKPRP: the “shrunken log2 fold change” value is -0.0609. The same measure for RRIRERPPRLPRPRPRPGNQPRP: -0.00399; for RRIRERPPRLPRPRPRPMQKPRP: 0.0175. For RRIRPRPPRLPRPRPRPKYIPRP, the “shrunken log2 fold change” value is -0.433. Next, RRIRDRPPRLPRPRPRPKTEPRP: -0.0167; RRIRFRPPRLPRPRPRPAWQPRP: 2.26; RRIRTRPPRLPRPRPRPVDHPRP: -0.216. Next, RRIRYRPPRLPRPRPRPEPLPRP: 0.0319.

In the case of RRIRRRPPRLPRPRPRPSCSPRP, the “shrunken log2 fold change” value is -0.163. The same measure for RRIRVRPPRLPRPRPRPRDGPRP: 1.09; for RRIRFRPPRLPRPRPRPYCYPRP: -0.749. The same measure for RRIRWRPPRLPRPRPRPRDCPRP: 0.226; for RRIRARPPRLPRPRPRPPMGPRP: 0.358; for RRIRWRPPRLPRPRPRPIWRPRP: 0.628. Regarding RRIRERPPRLPRPRPRPWGIPRP, the “shrunken log2 fold change” value is -0.234. Next, RRIRMRPPRLPRPRPRPQKKPRP: -0.0151; RRIRVRPPRLPRPRPRPAICPRP: -0.0408; RRIRTRPPRLPRPRPRPHYPPRP: -0.782. For RRIRNRPPRLPRPRPRPPYTPRP, the “shrunken log2 fold change” value is -0.876. The same measure for RRIRLRPPRLPRPRPRPNIDPRP: -0.213. For the sequence RRIRERPPRLPRPRPRPKDRPRP, the “shrunken log2 fold change” value is -0.094. As for RRIRHRPPRLPRPRPRPCQQPRP, the “shrunken log2 fold change” value is -0.0541. The same measure for RRIRLRPPRLPRPRPRPQRIPRP: -0.141; for RRIRARPPRLPRPRPRPEFVPRP: 1.05. On to RRIRLRPPRLPRPRPRPHCPPRP, for which the “shrunken log2 fold change” value worked out at 0.0666. The same measure for RRIRKRPPRLPRPRPRPGWKPRP: 0.0274. Next, RRIRSRPPRLPRPRPRPIYLPRP: -0.336; RRIRDRPPRLPRPRPRPRPYPRP: 0.018. Next, RRIRMRPPRLPRPRPRPVWCPRP: -0.0672.

On to RRIRARPPRLPRPRPRPQWTPRP, for which the “shrunken log2 fold change” value worked out at 0.164. Next, RRIRVRPPRLPRPRPRPAWIPRP: 0.0483; RRIRPRPPRLPRPRPRPCGIPRP: -0.0938; RRIRFRPPRLPRPRPRPFRSPRP: -0.0534.

For RRIRTRPPRLPRPRPRPKMCPRP, the “shrunken log2 fold change” value is 0.15.

As to RRIRPRPPRLPRPRPRPGCYPRP, the “shrunken log2 fold change” value amounted to 0.189. Next, RRIRVRPPRLPRPRPRPMDIPRP: -0.308; RRIRGRPPRLPRPRPRPINTPRP: -0.4.

Consider RRIRARPPRLPRPRPRPVSDPRP, for which the “shrunken log2 fold change” value stood at 0.576. Take RRIRHRPPRLPRPRPRPLFEPRP: the “shrunken log2 fold change” value is -0.135. On to RRIRTRPPRLPRPRPRPRYPPRP, for which the “shrunken log2 fold change” value is -0.516. On to RRIRWRPPRLPRPRPRPVQKPRP, for which the “shrunken log2 fold change” value amounted to 0.0836. The same measure for RRIRQRPPRLPRPRPRPDQRPRP: -0.00141; for RRIRDRPPRLPRPRPRPNTEPRP: -0.0682; for RRIRVRPPRLPRPRPRPMRQPRP: 0.0326. Next, RRIRYRPPRLPRPRPRPIECPRP: 0.00468; RRIRRRPPRLPRPRPRPRGRPRP: 0.319. The same measure for RRIRVRPPRLPRPRPRPKGEPRP: -0.0112.

As for RRIRKRPPRLPRPRPRPVDTPRP, the “shrunken log2 fold change” value worked out at 0.0388. For the sequence RRIRGRPPRLPRPRPRPLICPRP, the “shrunken log2 fold change” value came out at 0.147.

Consider RRIRYRPPRLPRPRPRPNHYPRP, for which the “shrunken log2 fold change” value was -0.739.

As for RRIRLRPPRLPRPRPRPADFPRP, the “shrunken log2 fold change” value was -0.0534. For the sequence RRIRDRPPRLPRPRPRPNCKPRP, the “shrunken log2 fold change” value was determined as 0.135. Next, RRIRWRPPRLPRPRPRPPHYPRP: 0.24; RRIRARPPRLPRPRPRPFLPPRP: -0.379; RRIRERPPRLPRPRPRPVPEPRP: -0.0948. For the sequence RRIRWRPPRLPRPRPRPAYHPRP, the “shrunken log2 fold change” value was -0.361. The same measure for RRIRRRPPRLPRPRPRPTHLPRP: 0.578. The same measure for RRIRIRPPRLPRPRPRPEKFPRP: -0.247; for RRIRVRPPRLPRPRPRPYNDPRP: -0.609; for RRIRWRPPRLPRPRPRPIQMPRP: -0.0543.

With RRIRYRPPRLPRPRPRPFRIPRP, the “shrunken log2 fold change” value is -0.535.

RRIRWRPPRLPRPRPRPCLKPRP: the “shrunken log2 fold change” value amounted to 0.0308. Take RRIRLRPPRLPRPRPRPKRHPRP: the “shrunken log2 fold change” value was determined as 0.208.

For RRIRGRPPRLPRPRPRPPYDPRP, the “shrunken log2 fold change” value is 0.0844. Next, RRIRMRPPRLPRPRPRPQVAPRP: 0.0435; RRIRMRPPRLPRPRPRPHTDPRP: 0.0445. As for RRIRNRPPRLPRPRPRPQNMPRP, the “shrunken log2 fold change” value was -0.233. The same measure for RRIRPRPPRLPRPRPRPSNYPRP: -0.733. The same measure for RRIRGRPPRLPRPRPRPMTFPRP: 0.536; for RRIRPRPPRLPRPRPRPKQTPRP: 0.327; for RRIRIRPPRLPRPRPRPAGPPRP: 0.153.

On to RRIRKRPPRLPRPRPRPSYSPRP, for which the “shrunken log2 fold change” value is -0.413. Next, RRIRPRPPRLPRPRPRPGVMPRP: 0.0104; RRIRQRPPRLPRPRPRPKAPPRP: 0.653. Turning to RRIRIRPPRLPRPRPRPPCAPRP, the “shrunken log2 fold change” value came out at 0.201. The same measure for RRIRLRPPRLPRPRPRPDTFPRP: 0.0621; for RRIRWRPPRLPRPRPRPERTPRP: 1.08. For RRIRYRPPRLPRPRPRPTSTPRP, the “shrunken log2 fold change” value is -0.203. The same measure for RRIRRRPPRLPRPRPRPRPIPRP: 0.945; for RRIRERPPRLPRPRPRPYLPPRP: -0.392. The same measure for RRIRSRPPRLPRPRPRPQVAPRP: 0.0589; for RRIRARPPRLPRPRPRPFGMPRP: 0.0196; for RRIRFRPPRLPRPRPRPFGIPRP: -0.197.

As to RRIRMRPPRLPRPRPRPEHEPRP, the “shrunken log2 fold change” value amounted to 0.0191.
